The text below walks through data of paper doi:10.1101/2020.06.12.149534 (bioRxiv, 2020).

Assay [1] concerns the target P113 N-terminal fragment D106K E107K, biotinylated bait (Plasmodium falciparum (3D7 strain)) (UniProt Q8ILP3). Description: SPR.
In assay [2] the target is T1, P113 N-terminal fragment (P. falciparum 3D7), purified soluble analyte (Plasmodium falciparum 3D7, stabilised).
T1 chain: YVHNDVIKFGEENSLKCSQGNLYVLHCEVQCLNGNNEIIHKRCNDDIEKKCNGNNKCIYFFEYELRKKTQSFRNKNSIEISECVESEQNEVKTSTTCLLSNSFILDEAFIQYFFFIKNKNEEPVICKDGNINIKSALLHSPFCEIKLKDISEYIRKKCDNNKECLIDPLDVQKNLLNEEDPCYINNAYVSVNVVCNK
Description: SPR.

Regarding “purified monomeric RH5 protein (from UniProt Q8IFM5 25-526) (natural protein)”, the fold reduction in dissociation half-life against wild-type P113 in assay [1] stood at 2 fold.

B1: anti-P113 monoclonal antibody P3.2 (antibody, V domains shown)
VH: QVQLQQPGAELVKPGASVRLSCKASGYTFTSYFMYWVRQRPGQGLQSIGGINPNNGGSNFNERFKTKATLTVDKSSSIAYLQLNSLTSEDSAVYYCTRRGLGYDYGGFAYWGQGTLVTVSA
VL: DIQMTQTTSSLSASLGDRVTISCRASQDISNYLNWYQQKPDGTVKLLIYYTSRLHSGVSSRFSGSGSGTDYSLTIKNLEQEDIATYFCQQVNALPPTFGGGTKLEIK
B1 gave a Kd in assay [2] of 320 nM.
